Assay: label from the status in PepcDB records
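Note: failed if final PepcDB status was selected cloned or expressed and not failed if soluble or beyond.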

Sequence: MKILSIHDLQIIRKRAEHHLSLREESNEKVSEKCCGLASGTTHLQILICGGTGCKASSSQGITENLQKAIERNGITDKVDVITVGCFGFCEKGPIVKIIPDNTFYTQVTPEDAEEIISEHIIGGRRIERLLYIDPKTEQTVSDSKHMDFYRKQLRIALRNCGFIDSENIEEYIAREGYFALADCLLNKQPADVIDIIKRSGLRGRGGGGFPTGLKWEFASKQVSNVKYVVCNADEGDPGAFMDRSIMEGDPHSIVEAMCICGYSIGSSKGLVYIRAEYPLAINRLKKAIEQAREYGLLGDHILGTDFSFDIEIRYGAGAFVCGEETALIHSMEGKRGEPTLKPPFPAESGYLGKPTNVNNVETLANIPIILTKGAEWFASIGTERSKGTKVFALAGKINNVGLIEVPMGTTLREVIYEIGGGIKGGKKFKAVQTGGPSGGCLTEKHLDTPIDFDNLLAAGSMMGSGGMIVMDEDDCMVSVARFYLDFTVEESCGKCTPCRIGNKRLLELLNKITEGRGTEKDLDTLATLGRVIKDTALCGLGQTSPNPVLSTLDNFRDEYLEHVRDKTCRAKQCKSLLTYTINPELCIGCHLCAKNCPADAISGLVRKPHVIHPEKCIKCGMCMARCKFKAILVC
- protein production: failed

Sequence: MKILVIGAGPAGLVFASQLKQARPLWAIDIVEKNDEQEVLGWGVVLPGRPGQHPANPLSYLDAPERLNPQFLEDFKLVHHNEPSLMSTGVLLCGVERRGLVHALRDKCRSQGIAIRFESPLLEHGELPLADYDLVVLANGVNHKTAHFTEALVPQVDYGRNKYIWYGTSQLFDQMNLVFRTHGKDIFIAHAYKYSDTMSTFIVECSEETYARARLGEMSEEASAEYVAKVFQAELGGHGLVSQPGLGWRNFMTLSHDRCHDGKLVLLGDALQSGHFSIGHGTTMAVVVAQLLVKALCTEDGVPAALKRFEERALPLVQLFRGHADNSRVWFETVEERMHLSSAEFVQSFDARRKSLPPMPEALAQNLRYALQRLEHHHHHH
- protein production: not failed

Sequence: MKILYIVLDGAADSPTSPRKTLEEASKPNIDSLGSHAVCGMVYTVKPGVAPQSDYATLSLLGYNPDEYYPGRGPLEAFGAGIEMRRGDIALRANFATVDPGTLRIIDRRVGRSLTSREARELASAVDGMELEDGEGTALFRATIGHRGVLVLRHRSKPLSDAISNTDPAYERRGRFSVALEKYEPFIKLSNPLVEDEAAVLAARMLNEFTLKAVEILDSHPVNLAREKRGLLKANAILSRDAGGLPEEKPPSFQERFGLRGASIVEMVVERGISRYIGLDDIRVEIEGRAREEVYREEAARAVEALETHDLVYVHLKGPDEPGHDGSFEGKIRAVEDIDKHFFAPLLDRLSSAGLEPAFVVTSDHATPWDVGAHSGDPVPLMISHQSIQ
- protein production: failed

Sequence: MKINKIDTRHGTANQSTFSHGNCLPYTGFPWGMNYFSPSTGAARGAWWFHPEDRTFEGYRITHQPSPWMGDFSHLTMTPVAGPLPETSLWHTVSSYRPEESTFNPTQLKITQLRYQITSQLIPSMYGGILSMNYQNLSLKDNGLMLHLPGSYELQQLDDYSLELSIINFAGCEDENFTFYLKFTADQPFVLSGNLSDEDSSVRLDFKAAKQVQIHFATSFISKEQAALNLEREQDNSAETYLENAESAWNNLFSRIEIEHHNQQEVSTFYHNLYRSFLFPQTFYEFDQEHQKIHYDTSSKTVKKGPLYTNNGFWDTFRTVYPLYSLIAVDEYGDMLEGFLNSYRATGFLPKWLSPDERGLMPGTLIDAVIADAASKNIRPDLMPEFLEAMKKGATSQSENSNYGRRGTKDYLKLGYVPLTHHESVNHTLDYAFSDYCISQVAKQTGDKEISDFYAHQAKDYQNIFDSETGFMRAKDADGNFRADFLDIRWGRDYAEGSAWQTSWSVLHDFAGLIKLHGSRENFENKLIELCNQRPNFNVEGYGFEIHEMSEMAAIEFGQVAISNQPSFHYPYLFSYIGKPWMATPLIKNLLTETFNDSPKGYPGDEDNGTMAAWYIFSSLGFYPVTAASNQYVLGIPLWDKARINLSSGQQLTILAEPNAPQQVFVNQITFTDKKVNDTFIKHEELIKGGTLKFDLGIVPNPLKYTNEQLPYSLTEN
- protein production: failed

Sequence: MKIQDLLRKDIMILDLQAISKEVAIDEMITKLVEKDIVHDFDVFKKSIMTREEQTSTGLGDGIAMPHSKNIVVDKPAVLFAKSNKGVDYKALDGQPTDLFFMIAAPQGANDTHLAALAELSQYLLKDGFADKLRAAATPEAVIAVFDEASTAKEEV
- protein production: failed

Sequence: MKIRHVSHQAWLLFLVALLVLGSGLGLRDPHPADEPRFALVAKQMVDSGEWLFPHRGNELYSDKPPMLMWLQAAFYTLFGNLKVAFLLPSLLAALGTLVCVYDLGRRLWTRRIGLYAAYALLFTFHFTYQAKRAQIDALVVFFITFANYGLLRHLLFGGHWRWWVLGWFAAGLGTITKGVGALALLIVLPAAAASLAGWPRVRVHVRDVRFWLGPLGFLVAVSLWLVPMVMTALSAQQPEYRAYLNDILLRQTFGRYTKSWDHAQPPWYFLQVMLVMWIPTLLALPWALPAWWRRMRRRDPRYLLPLAWCVLLLVFFSIPSGKRDVYMLPALPMVCLALAPLLPGLLRKRACSRLLLAFGVLLVLVLAVFGAGLLIRSDWQARMMEGTTLILEDVRVIAWGGIAVASWGVFSLLAFSQRRPVVAVFSVLTTLWLVFGLVLMPVVNDSSSARGVMMIAGKRIGPAAELGLVAWKEQNLLMADRSVATFGFLVPWDEQLRRGIAWQVQRPRQRWLLVQEAAMFGCINRSASVFVGSSNRRAWWLVPAWAVHGACIMTQAEHDRLSKQ
- protein production: failed

Sequence: MKIRKLTNEEIKGACAFAVNIYNIAIRGCFRTLDCHRYFDEYMDADRLTDEERTGALVVFGAFDSNVLCGVCGMTNEGHITMLYVHPQYLRRGIGKKLLERVRIYARMQLKLMQVSVNAMPAYTAEYFMHVGFKSAYQGGFCNGQGDMYVPMTAKSIYQVEYTPRHIADKTFIAISVGFTCLVFVSGVIYAVCAGLTP
- protein production: failed

Sequence: MKIRNACKEDAQQLIAIYASYVEKTAITFEYQVPSLEEFEERIEKTKQKFPYLVAEEEGILQGYAYASVYYNHAAYDWTVELSIYIKEEARGKHIGSQLYASLERNLQEAGFVNLLVCIALPNNASLTFHKKHGYEQVAHFKKVGYKFDKWYDIVWMQKRLLD
- protein production: failed

Sequence: MKIRSADASDLDSLLRLNYQIGVMHFENAPESFVKPSSEEKEFLLKALNDQSRLFLVAEISGDVVGFVTATVTQNEAIPFLVKTPICRVGTIVVDENARVSGIGTQLMARCNDWAKSQGAEQIRLEVMAFNKSAQSFYVKLGFEEQSKTMWKTVN
- protein production: failed

Sequence: MKISPLCPSCLLGRVYYEAKLVTDDEDLISQCVDESLKILAENYSSAPINAHLATRIHRRVYEILGVEDPYAEVKARANEVARQVLPLAKEIVEGSDDPFKTAVIVSIVGNNFDYGVQGHKVVEEEFRDFLKRKVQEGLKINDTERIKELSSGKVVYLTDNAGEIFFDTLLMKEIKRRCEKLTAVVRGRPIISDATIEDARLARVDKIADELLTNGKGAIGIIMDELPDETRKALEEADLIVAKGMANYECLSDGSLKPIAFLLTAKCEPVARDIGVNVGDMVAKVVE
- protein production: not failed

Sequence: MKISVIISNYNYARYLSRAINSVLAQTHSDIEIVIVDDGSTDNSRDVITQLQEQAPDKIKPIFQANQGQGGAFNAGFAAATGEVVAFLDADDVWKPHKLQRIVEVFQTSDVVGVMHHLDIIDGNDKTIDQASTQGPKLSEDLASVILQTGNAWCFPPTSGLAYRREVLEKVFPIDPVKWRIWADGCIIYCTAFLGKIKTLQENLAYYRIHGANNHMSAASATSEQEAKSQAGIEMTNQYINDFLVRIGYGARVDLSRNLQYRRTKYYQRSQWDLREVWGISRLILGWPFYSGQERAYYLARFLFKSGKFLLRSDVHTESTTI
- protein production: failed

Sequence: MKISVITINYNNGEQLEATIQSVVSNVTVLRELLGEKAEYIVIDGGSVDCSVSVLQKYSEYISYWISEKDKGIYHAMNKGISVAQGEYCFFLNSGDTFYEDDTLKKALLFLKEDFVCGNAVLKYAGGINEWSAPEIVNTLFFMQRFSVCHQSLFIRTELLKSHPYNETLMIVADYEQMFYEIAVNHRSYKKIDLTICYYGCDGVSSDHEKADAEKRSVINEFRYLGYIEPDELWNVVSKLKIGTRKYRLLLSLAKCLTSSPKYWVRLEHHHHHH
- protein production: not failed

Sequence: MKISVPTYPFARERYWISVPEMKTSTVNHILHPLVHRNTSDFTEQRFSSVFTGTEFFLSDHVVQGQKILPGVAYLEMAREAAEKAAGDLDGEQRVVSLKDIVWVRPITIESEPKEIHIGLFPEDNGDISFDIYSSSEHKEEALTIHCQGRAVISDEAETSILNLSSIQTECSLDTVTSEQCYAAFRKIGLDYGEGYQGIEKVYVGKDQLLAKISLPAFLKNDKQHFALHPSLMDSAFHATVGFIVSSVNAAGQAQTLSLPFALQEVDIFSPCPEKIWSYIRYSSDSLEHHHHHH
- protein production: failed
